Common to all, as to assay: pull-down
For one test, the target named is T1, His×6-HDAC6-FLAG (human, UniProt Q9UBN7 1-1215).
T1 sequence (looked up): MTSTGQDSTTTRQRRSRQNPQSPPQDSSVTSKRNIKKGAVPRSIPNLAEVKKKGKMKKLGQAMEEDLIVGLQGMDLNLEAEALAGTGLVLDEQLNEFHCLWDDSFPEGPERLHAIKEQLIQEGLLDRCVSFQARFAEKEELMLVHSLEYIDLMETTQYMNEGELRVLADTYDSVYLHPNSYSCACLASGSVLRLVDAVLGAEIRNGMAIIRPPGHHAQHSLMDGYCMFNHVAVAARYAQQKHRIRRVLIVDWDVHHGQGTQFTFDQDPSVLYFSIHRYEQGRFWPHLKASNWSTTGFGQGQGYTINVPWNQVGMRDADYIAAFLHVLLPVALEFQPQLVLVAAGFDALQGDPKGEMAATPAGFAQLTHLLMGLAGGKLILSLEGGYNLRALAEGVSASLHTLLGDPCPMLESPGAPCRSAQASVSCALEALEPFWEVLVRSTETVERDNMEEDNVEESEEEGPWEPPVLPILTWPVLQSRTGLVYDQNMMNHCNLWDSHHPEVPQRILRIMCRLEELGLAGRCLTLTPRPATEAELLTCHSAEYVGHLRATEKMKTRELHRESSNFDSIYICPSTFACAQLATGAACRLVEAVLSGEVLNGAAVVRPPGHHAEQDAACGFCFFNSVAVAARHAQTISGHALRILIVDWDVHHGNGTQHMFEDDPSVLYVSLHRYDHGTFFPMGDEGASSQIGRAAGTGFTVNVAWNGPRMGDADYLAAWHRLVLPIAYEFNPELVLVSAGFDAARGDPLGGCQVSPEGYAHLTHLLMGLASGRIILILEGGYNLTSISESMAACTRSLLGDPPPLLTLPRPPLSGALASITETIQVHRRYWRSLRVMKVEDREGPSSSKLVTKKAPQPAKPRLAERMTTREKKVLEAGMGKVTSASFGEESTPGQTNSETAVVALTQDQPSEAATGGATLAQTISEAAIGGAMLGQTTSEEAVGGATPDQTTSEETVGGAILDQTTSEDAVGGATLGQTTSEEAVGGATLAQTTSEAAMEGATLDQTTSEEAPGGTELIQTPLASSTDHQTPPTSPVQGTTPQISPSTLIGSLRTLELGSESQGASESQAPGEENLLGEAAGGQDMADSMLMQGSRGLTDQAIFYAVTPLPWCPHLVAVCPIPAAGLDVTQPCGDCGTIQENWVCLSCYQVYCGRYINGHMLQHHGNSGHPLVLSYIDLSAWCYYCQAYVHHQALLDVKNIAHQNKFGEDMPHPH

A further test deals with T2, His×6-DD1-FLAG (human, UniProt Q9UBN7 106-439).
T2 sequence (looked up): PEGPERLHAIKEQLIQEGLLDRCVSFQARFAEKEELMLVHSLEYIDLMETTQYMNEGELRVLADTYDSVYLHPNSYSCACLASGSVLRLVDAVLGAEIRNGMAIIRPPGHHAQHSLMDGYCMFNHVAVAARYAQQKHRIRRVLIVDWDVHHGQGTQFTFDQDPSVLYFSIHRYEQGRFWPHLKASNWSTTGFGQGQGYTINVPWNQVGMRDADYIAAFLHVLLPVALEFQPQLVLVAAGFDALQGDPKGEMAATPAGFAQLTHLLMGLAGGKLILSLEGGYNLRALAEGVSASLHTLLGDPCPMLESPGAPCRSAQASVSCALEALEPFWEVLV

A further test deals with T3, His×6-DD2-FLAG (human, UniProt Q9UBN7 440-840).
T3 sequence (looked up): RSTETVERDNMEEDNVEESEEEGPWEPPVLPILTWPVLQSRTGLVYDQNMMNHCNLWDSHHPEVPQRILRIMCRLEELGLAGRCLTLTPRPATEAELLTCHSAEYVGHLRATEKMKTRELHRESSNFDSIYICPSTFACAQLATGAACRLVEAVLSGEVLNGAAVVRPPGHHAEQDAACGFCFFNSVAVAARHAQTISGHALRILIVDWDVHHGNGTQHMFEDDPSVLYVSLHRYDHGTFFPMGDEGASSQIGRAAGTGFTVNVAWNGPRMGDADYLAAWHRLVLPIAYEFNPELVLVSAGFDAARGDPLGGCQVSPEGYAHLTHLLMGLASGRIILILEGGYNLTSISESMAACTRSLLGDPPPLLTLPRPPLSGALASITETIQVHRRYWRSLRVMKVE

B1: GST-tagged parkin RING1 domain (R1) (domain or fragment, human, UniProt O60260 217-310, looked up)
chain: TSDKETSVALHLIATNSRNITCITCTDVRSPVLVFQCNSRHVICLDCFHLYCVTRLNDRQFVHDPQLGYSLPCVAGCPNSLIKELHHFRILGEE
Consider B1, for which the binding result in the test with His×6-HDAC6-FLAG and with His×6-DD1-FLAG was “binds” in each case.

B2: GST-tagged parkin RING2 domain (R2) (domain or fragment, human, UniProt O60260 395-465, looked up)
chain: ERAAEQARWEAASKETIKKTTKPCPRCHVPVEKNGGCMHMKCPQPQCRLEWCWNCGCEWNRVCMGDHWFDV
As to B2, the binding result in the test with His×6-DD2-FLAG and with His×6-HDAC6-FLAG was “binds” each time.

B3: GST-tagged parkin Linker domain (L) (domain or fragment, human, UniProt O60260 77-237, looked up)
chain: GQEMNATGGDDPRNAAGGCEREPQSLTRVDLSSSVLPGDSVGLAVILHTDSRKDSPPAGSPAGRSIYNSFYVYCKGPCQRVQPGKLRVQCSTCRQATLTLTQGPSCWDDVLIPNRMSGECQSPHCPGTSAEFFFKCGAHPTSDKETSVALHLIATNSRNIT
B3: the binding result in the test with His×6-HDAC6-FLAG and with His×6-DD1-FLAG was “binds” each time.

The values above are taken from article PMC2680492 (The Journal of neuroscience : the official journal of the …, 2008).
